Experimental data reported in patent US11124785B2, “Rothia subtilisins, S8A family proteases, as therapeutic enzymes for application in gluten intolerance disorders” (TRUSTEES OF BOSTON UNIVERSITY, priority 2016, dated 2021).

Tests used:
[1] = tested on: R. mucilaginosa enzyme preparation (Rmep); assay: Inhibitor profile of Rmep (Suc-AAPF-pNA hydrolysis); assay type: biochemical, Rothia mucilaginosa; conditions: for inhibition of Rmep activity: AEBSF 10 mM, aprotinin 0.08 mM, E-64 0.1 mM, EDTA 1.5 mM, PMSF 1 mM, Rmep 5.7 μg/ml, Suc-AAPF-pNA
Description: Inhibitors AEBSF, Aprotinin, E-64, EDTA, PMSF and Eglin C were tested at final concentrations of 10 mM, 0.08 mM, 0.1 mM, 1.5 mM, 1 mM, and 0.06 μM, respectively. Rmep was added at a final concentration of 5.7 μg/ml. The percent inhibition was determined from the ratio of the initial velocities of hydrolysis of Suc-AAPF-pNA (SEQ ID NO: 4) in the absence and presence of inhibitor.
(§1) Hydrolysis of paranitroanilide-derivatized substrates—Paranitroanilide (pNA)-derivatized tripeptide substrates were chemically synthesized at >90% purity (21st Century Biochemicals, Marlborough, Mass.). The substrates obtained were Z-YPQ-pNA, Z-QQP-pNA, Z-LPY-pNA, Z-PFP-pNA, Z-PPF-pNA, where Z=benzyloxycarbonyl, Y=tyrosine, P=proline, Q=glutamine, L=leucine, and F=phenylalanine Suc-AAPF-pNA (SEQ ID NO: 4) was obtained from Sigma, where Suc=N-succinyl and A=alanine. The peptides were dissolved in 75-100% DMSO at 10 mM, and were used at a final concentration of 200 μM in 50 mM TrisHCl pH 8.0. Purified Rothia enzyme or subtilisin A from Bacillus licheniformis (Sigma) were tested at final concentrations of 1 μg/ml. Some experiments were conducted in the presence of inhibitors 4-(2-Aminoethyl) benzenesulfonyl fluoride (AEBSF), Aprotinin, E-64, EDTA, phenylmethanesulfonyl fluoride (PMSF) and Eglin C, which were tested at final concentrations of 10 mM, 0.08 mM, 0.1 mM, 1.5 mM, 1 mM, and 0.06-1.2 μM, respectively. Enzymes were preincubated with the inhibitors for 20 min before adding Suc-AAPF-pNA (SEQ ID NO: 4). Substrate hydrolysis was monitored for 10 h at 405 nm using a Genios microtiter plate reader (Tecan, Männedorf, Switzerland) in the kinetic mode at 37° C.

Suc-AAPF-pNA = assay: Hydrolysis of paranitroanilide-derivatized substrate Suc-AAPF-pNA; assay type: biochemical; conditions: substrate 200 μM; enzyme 1 μg/ml (NattoK: dilution series); 50 mM TrisHCl pH 8.0, 37° C.
Description: FIG. 4A and FIG. 4B are representative graphs of the hydrolysis of the substrates: Suc-AAPF-pNA (SEQ ID NO: 4), Z-YPQ-pNA, and Z-LPY-pNA, each at 200 μM, by Rmep and subtilisin A, respectively, each at 1 μg/ml.
FIG. 8C show a representative graph of the hydrolysis of the substrate, Suc-AAPF-pNA (SEQ ID NO: 4), with a dilution series of NattoK. Suc-AAPF-pNA (SEQ ID NO: 4) was incubated […]. Hydrolysis was measured at 405 nm.
as §1

mixed gliadins = assay: Degradation of mixed gliadins (SDS-PAGE); assay type: biochemical, wheat; conditions: gliadins 250 μg/ml; NattoK 57 μg/ml 0-120 min and dilution series 3.5-0.06 μg/ml 30 min
Description: FIG. 5A is a representative SDS-PAGE gel of non-digested gliadins (control) and Rmep-treated gliadins. Gliadins (250 μg/ml) in 50 mM Tris/HCl pH 8.0 were incubated with Rmep at 57 μg/ml. After 0, 15 min, 30 min and 2 h incubation 100 μl aliquots were removed, boiled and analyzed by SDS-PAGE and stained with COOMASSIE Brilliant Blue. The bold arrow (left) points to the position of the major band in the gliadin preparation; the thin arrow (right) to the 125 kDa band in the Rmep preparation, and the dotted arrows (right) to the gliadin degradation fragments.
FIG. 6A is a representative SDS-PAGE gel of non-digested gliadins (control) and subtilisin A-treated gliadins. Gliadins (250 μg/ml) in 50 mM Tris/HCl pH 8.0 were incubated with subtilisin A at 57 μg/ml. Experiments were conducted as described in the legend of FIG. 5 with subtilisin A instead of Rmep.
FIG. 8A is a representative SDS-PAGE gel of non-digested gliadins (control) and NattoK-treated gliadins. Mixed gliadins (G, 250 μg/ml) were incubated with NattoK (57 μg/ml) for 0, 15, 30 and 120 min. Left four lanes: controls without enzyme or gliadins, respectively, each at t=0 and 120 min. Arrow points to the major components in the gliadin mixture represented by α and γ-gliadins containing most of the immunogenic epitopes.
(§2) Degradation of mixed gliadins and the 33-mer peptide—Mixed gliadins were obtained from Sigma. A synthetic highly immunogenic α-gliadin derived 33-mer peptide (26) was synthesized at a purity of >90% (21st Century Biochemicals). Mixed gliadins or the 33-mer peptide (each at final concentration 250 μg/ml) were incubated with Rmep or subtilisin A (each at 57 μg/ml) in 50 mM TrisHCl, pH 8.0. After t=0, 15 min, 30 min, and 2 h, 100 μl sample aliquots were removed and boiled. Gliadin degradation was assessed by 4-12% SDS-PAGE followed by Coomassie staining, and 33-mer degradation was determined by RP-HPLC.

[2] = tested on: α-gliadin derived 33-mer peptide; assay: Degradation of the 33-mer peptide (RP-HPLC); assay type: biochemical; conditions: 33-mer 250 μg/ml, NattoK 57 μg/ml, 0-120 min; large fragment remained
Description: FIG. 8D is a representative chromatogram of the RP-HPLC analysis of the degradation of the gliadin-derived 33-mer (250 μg/ml) incubated for 0, 15, 30 and 120 min with NattoK 57 μg/ml).
as §2
Reversed-phase high performance liquid chromatography (RP-HPLC)—Separation of the 33-mer peptide and its fragments was achieved by RP-HPLC, using buffer A (0.1% trifluoroacetic acid) and buffer B (0.1% trifluoroacetic acid in 80% acetonitrile) at a gradient of 0-55% buffer B over 75 min time interval. The equipment used was an HPLC Model 715 (Gilson, Middleton, Wis.) and a C-18 column (TSK-GEL […], ODS-120T, TOSOHaas, Montgomeryville, Pa.) (22, 25).

[3] = tested on: R5 epitopes (QQPFP and related pentapeptides) in mixed gliadins; assay: R5 ELISA, gluten epitope elimination in gliadin digests; assay type: biochemical; conditions: gliadins 250 μg/ml, NattoK 57 μg/ml, 0-120 min
Description: FIG. 8E and FIG. 8F show the assessment of the survival of epitopes in the gliadin-NattoK degradation mixture employing the R5 ELISA (FIG. 8E) or G12 ELISA (FIG. 8F) assays. Epitope abolishment in Mixed gliadins (250 μg/ml) were incubated with NattoK (57 μg/ml) for 0, 15, 30 and 120 min and then assayed by the R5 ELISA or G12 ELISA.
R5 and G12 ELISA assays—Gluten epitope elimination in the gliadin-Rmep and gliadin-subtilisin A digests was assessed using two sandwich ELISA assays employing the R5 monoclonal antibody (RIDASCREEN Gliadin, R-Biopharm, Darmstadt, Germany) or the G12 monoclonal antibody (AgraQuant® ELISA Gluten G12, Romer labs, Union, Mo.). To prevent high background values, the R5 plate wells were blocked with 1% skim milk in PBS prior to incubation with the samples. The assays were performed according to the manufacturers' instructions and as described (21, 24).
To further investigate this, the time courses of degradation of mixed gliadins and the highly immunogenic 33-mer α-gliadin peptide were determined. Furthermore, epitope elimination was monitored by two ELISA assays employing the R5 antibody recognizing QQPFP (SEQ ID NO: 40) and related pentapeptides (27, 28) and the G12 antibody recognizing QPQLPY (SEQ ID NO: 22) contained in the 33-mer peptide (29, 30). Data obtained with Rmep are shown in FIG. 5, and with subtilisin A in FIG. 6.

wheat ATI proteins = assay: Degradation of amylase-trypsin inhibitors (SDS-PAGE); assay type: biochemical; conditions: ATIs 500 μg/ml
Description: (§3) FIGS. 15A-15F show effective ATI degradation by subtilisins from B. subtilis (nattokinase). […] ATI (500 μg/ml) incubated with Rmep from R. mucilaginosa (FIG. 15A) or nattokinase from B. subtilis (FIG. 15C) at 50, 25, or 10 μg/ml; FIGS. 15B and 15D, Gliadins (500 μg/ml) incubated with Rmep (FIG. 15B) or nattokinase (FIG. 15D) at 25 μg/ml. FIGS. 15E and 15F, ATIs incubated with control heat inactivated enzymes, Rmep (FIG. 15E) or nattokinase (FIG. 15F).
(§4) ATIs were isolated from wheat cultivars as described^3. They were incubated at a final concentration of 500 μg/ml with 10, 25 or 50 μg/ml Rmep (from R. mucilaginosa), or nattokinase (from B. subtilis). The controls incubations were carried out with heat-inactivated Rmep and nattokinase. Experiments were conducted in 50 mM Tris-HCl, pH 8.0. After 0, 15 min, 30 min, 1 h, and 4 h incubation, 20 μl aliquots were removed, mixed with SDS-sample buffer, heated at 85° C. for 5 min and analyzed by 4-12% SDS PAGE. Proteins were visualized with Coomassie Blue staining.

gliadins = assay: Gliadin degradation control of Example 3 (SDS-PAGE); assay type: biochemical; conditions: gliadins 500 μg/ml, enzyme 25 μg/ml, pH 8.0
Description: as §3, §4

NCCc1ccc(S(=O)(=O)F)cc1 [AEBSF, 4-(2-Aminoethyl) benzenesulfonyl fluoride]
inhibition of Rmep activity [1]: inhibited effectively

CC(C)C[C@H](NC(=O)[C@H]1O[C@@H]1C(=O)O)C(=O)NCCCCN=C(N)N [E64]
inhibition of Rmep activity [1]: not

O=C(O)CN(CCN(CC(=O)O)CC(=O)O)CC(=O)O [EDTA, ethylenediaminetetraacetic acid]
inhibition of Rmep activity [1]: not

O=S(=O)(F)Cc1ccccc1 [PMSF, phenylmethanesulfonyl fluoride]
inhibition of the Rothia subtilisin by PMSF ([1]; 1 mM PMSF, stated as embodiment): 100% | inhibition of Rmep activity [1]: inhibited effectively

aprotinin
inhibition of Rmep activity [1]: partial inhibition

B1: NattoK: nattokinase, a 27.7 kDa subtilisin enzyme from B. subtilis, available in pure form as a dietary supplement (protein, listed as Bacillus subtilis)
chain: MRSKKLWISLLFALTLIFTMAFSNMSAQAAGKSSTEKKYIVGFKQTMSAMSSAKKKDVISEKGGKVQKQFKYVNAAAATLDEKAVKELKKDPSVAYVEEDHIAHEYAQSVPYGISQIKAPALHSQGYTGSNVKVAVIDSGIDSSHPDLNVRGGASFVPSETNPYQDGSSHGTHVAGTIAALNNSIGVLGVAPSASLYAVKVLDSTGSGQYSWIINGIEWAISNNMDVINMSLGGPTGSTALKTVVDKAVSSGIVVAAAAGNEGSSGSTSTVGYPAKYPSTIAVGAVNSSNQRASFSSVGSELDVMAPGVSIQSTLPGGTYGAYNGTSMATPHVAGAAALILSKHPTWTNAQVRDRLESTATYLGNSFYYGKGLINVQAAAQ
hydrolysis of Suc-AAPF-pNA (Suc-AAPF-pNA): hydrolyzed | degradation of mixed gliadins (mixed gliadins): degraded gliadins effectively | degradation of the 33-mer peptide [2]: degraded the 33-mer peptide | abolishment of R5 epitopes [3]: abolished | ATIs degraded after 4 h incubation with 10 μg/ml enzyme (wheat ATI proteins; 10 μg/ml enzyme, 4 h): Approximately 50% | ATIs degraded after 1 h incubation with 50 μg/ml enzyme (wheat ATI proteins; 50 μg/ml enzyme, 1 h): Approximately 50% | degradation of wheat ATI proteins (wheat ATI proteins; enzyme 10, 25 or 50 μg/ml, pH 8.0, up to 4 h): susceptible to proteolysis | degradation of gliadins (gliadins): rapidly degraded
